Test results: patent publication US20180311371A1 (Hoffmann-La Roche, published 2018)
Read-outs that look alike come from different tables or passages of the source.

Assays:
[1] = biological target: T1, huTPBG (recombinant human TPBG immobilised on the Biacore chip) (human, UniProt Q13641 32-355, limits assumed); experiment: SPR Biacore T200; huTPBG amine-coupled, Fab injected
T1 construct: also called human TPBG antigen
T1 sequence: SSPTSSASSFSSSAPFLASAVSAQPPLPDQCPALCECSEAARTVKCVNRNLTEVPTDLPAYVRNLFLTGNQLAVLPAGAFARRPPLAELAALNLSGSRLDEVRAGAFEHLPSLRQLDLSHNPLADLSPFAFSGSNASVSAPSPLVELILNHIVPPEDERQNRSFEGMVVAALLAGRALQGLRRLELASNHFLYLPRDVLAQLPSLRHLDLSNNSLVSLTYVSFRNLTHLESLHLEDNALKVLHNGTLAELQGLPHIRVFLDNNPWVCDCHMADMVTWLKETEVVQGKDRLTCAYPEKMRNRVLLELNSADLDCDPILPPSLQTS

[2] = biological target: T2, human TPBG (trophoblast glycoprotein), full length, cell surface expressed (human, UniProt Q13641 32-420); experiment: flow cytometry on SW620 clone 4 cells; ratio of MFI; replicate 2
T2 construct: On MCF7, H1975 and BxPC-3 tumour cells, on SW620 clone 4 and on CHO-K1 cells transfected with full length human TPBG; also called huTPBG; 5T4
T2 sequence: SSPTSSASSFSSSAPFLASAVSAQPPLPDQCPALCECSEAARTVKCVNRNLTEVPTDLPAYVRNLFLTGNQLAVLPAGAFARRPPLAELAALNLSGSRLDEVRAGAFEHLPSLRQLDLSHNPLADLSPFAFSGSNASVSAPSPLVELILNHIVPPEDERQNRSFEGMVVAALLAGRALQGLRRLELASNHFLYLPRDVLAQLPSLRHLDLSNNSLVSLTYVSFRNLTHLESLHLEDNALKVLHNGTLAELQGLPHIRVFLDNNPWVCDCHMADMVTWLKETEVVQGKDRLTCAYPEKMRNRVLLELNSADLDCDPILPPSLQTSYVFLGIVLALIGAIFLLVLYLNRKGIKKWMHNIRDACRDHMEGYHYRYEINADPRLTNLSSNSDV

[3] = biological target: T2, human TPBG (trophoblast glycoprotein), …; experiment: cell-based or functional assay
[4] = biological target: T2, human TPBG (trophoblast glycoprotein), …; experiment: cell-based or functional assay; remark: listed apart in the source
[5] = biological target: T3, minipig TPBG, full length, cell surface expressed on CHO-K1 cells (minipig); experiment: cell-based or functional assay
T3 chain: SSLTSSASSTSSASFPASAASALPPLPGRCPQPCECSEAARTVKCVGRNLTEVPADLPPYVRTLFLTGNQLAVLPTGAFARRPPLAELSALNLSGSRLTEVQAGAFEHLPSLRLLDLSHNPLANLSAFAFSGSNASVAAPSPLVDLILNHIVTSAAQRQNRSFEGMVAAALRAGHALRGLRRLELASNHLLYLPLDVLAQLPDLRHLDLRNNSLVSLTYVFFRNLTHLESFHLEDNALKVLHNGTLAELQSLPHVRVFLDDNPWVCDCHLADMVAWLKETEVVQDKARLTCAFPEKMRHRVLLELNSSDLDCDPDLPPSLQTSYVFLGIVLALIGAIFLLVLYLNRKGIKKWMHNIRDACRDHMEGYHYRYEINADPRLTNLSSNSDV

[6] = biological target: T4, recombinant extracellular domain of minipig TPBG (Biacore analyte) (minipig); experiment: SPR Biacore T200; Fab captured by anti-huFab, minipig TPBG injected
T4 chain: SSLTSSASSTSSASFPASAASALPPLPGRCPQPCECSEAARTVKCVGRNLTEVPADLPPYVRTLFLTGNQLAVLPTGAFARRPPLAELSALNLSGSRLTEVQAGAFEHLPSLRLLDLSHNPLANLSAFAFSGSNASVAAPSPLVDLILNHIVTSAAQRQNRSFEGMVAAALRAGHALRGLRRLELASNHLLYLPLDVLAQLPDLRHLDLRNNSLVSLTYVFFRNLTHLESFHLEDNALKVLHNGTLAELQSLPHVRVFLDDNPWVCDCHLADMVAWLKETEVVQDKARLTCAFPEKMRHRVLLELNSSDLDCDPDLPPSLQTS

[7] = biological target: T2, human TPBG (trophoblast glycoprotein), …; experiment: cell ELISA on MCF7 cells; titrated from 5 µg/ml
[8] = biological target: T2, human TPBG (trophoblast glycoprotein), …; experiment: cell-based or functional assay; remark: listed apart in the source
[9] = biological target: T5, human TPBG extracellular domain, His6Avi, biotinylated (human, biotinylated); experiment: ELISA; biotinylated TPBG-AviHis on streptavidin plate; Fab titrated from 2 µg/ml
T5 construct: also called huTPBG; human TPBG-AviHis
T5 chain: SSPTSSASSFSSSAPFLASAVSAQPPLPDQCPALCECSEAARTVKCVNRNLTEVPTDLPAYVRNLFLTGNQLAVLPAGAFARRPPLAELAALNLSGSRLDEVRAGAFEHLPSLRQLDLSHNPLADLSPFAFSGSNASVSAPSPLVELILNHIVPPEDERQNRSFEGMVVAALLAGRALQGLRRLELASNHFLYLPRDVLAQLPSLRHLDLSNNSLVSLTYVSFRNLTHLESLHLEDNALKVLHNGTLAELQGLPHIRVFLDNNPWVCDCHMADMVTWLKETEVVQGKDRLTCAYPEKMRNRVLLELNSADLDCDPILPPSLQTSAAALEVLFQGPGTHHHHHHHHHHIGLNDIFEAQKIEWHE

[10] = biological target: T6, minipig TPBG extracellular domain, His6Avi, biotinylated (minipig, biotinylated); experiment: as above
T6 construct: also called mpTPBG; minipig TPBG-AviHis
T6 chain: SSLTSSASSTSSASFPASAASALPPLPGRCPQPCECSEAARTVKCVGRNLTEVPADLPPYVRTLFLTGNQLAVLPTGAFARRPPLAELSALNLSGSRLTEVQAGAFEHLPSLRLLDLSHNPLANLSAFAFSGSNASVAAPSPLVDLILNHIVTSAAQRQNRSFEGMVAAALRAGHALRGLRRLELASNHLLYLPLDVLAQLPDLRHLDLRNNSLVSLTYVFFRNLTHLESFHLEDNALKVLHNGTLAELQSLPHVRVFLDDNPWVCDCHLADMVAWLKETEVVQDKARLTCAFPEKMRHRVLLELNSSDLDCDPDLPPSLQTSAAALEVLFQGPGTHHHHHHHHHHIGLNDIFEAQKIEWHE

[11] = biological target: T2, human TPBG (trophoblast glycoprotein), …; experiment: cell-based or functional assay; remark: listed apart in the source
[12] = biological target: T2, human TPBG (trophoblast glycoprotein), …; experiment: flow cytometry on SW620 clone 4 cells; ratio of MFI; replicate 1
[13] = biological target: T7, minipig TPBG extracellular domain, huIgG1-Fc-His (minipig); experiment: ELISA; Fc-TPBG coated; mAb titrated from 1 µg/ml
T7 construct: also called Fc-TPBG (mp)

[14] = biological target: T8, human TPBG extracellular domain, huIgG1-Fc-His6 (human); experiment: ELISA; Fc-TPBG coated; mAb titrated from 1 µg/ml
T8 construct: also called Fc-TPBG (hu)

[15] = biological target: T3, minipig TPBG, full length, cell surface …; experiment: flow cytometry on CHO-K1 stably expressing minipig TPBG; Fab-PE fusion
[16] = biological target: T2, human TPBG (trophoblast glycoprotein), …; experiment: cell-based or functional assay; remark: listed apart in the source
[17] = biological target: T1, huTPBG (recombinant human TPBG …); experiment: SPR Biacore T200; huTPBG amine-coupled, Fab-PE injected; pH 7.4
[18] = biological target: T1, huTPBG (recombinant human TPBG …); experiment: SPR Biacore T200; huTPBG amine-coupled, Fab-PE injected; pH 5.5
[19] = biological target: T2, human TPBG (trophoblast glycoprotein), …; experiment: flow cytometry on CHO-K1 stably expressing human TPBG; Fab-PE fusion
[20] = biological target: T2, human TPBG (trophoblast glycoprotein), …
[21] = biological target: T2, human TPBG (trophoblast glycoprotein), …; experiment: cell-based or functional assay; remark: listed apart in the source
[22] = biological target: T2, human TPBG (trophoblast glycoprotein), …; experiment: cell-based or functional assay; remark: listed apart in the source
[23] = biological target: T2, human TPBG (trophoblast glycoprotein), …; experiment: cell-based or functional assay; remark: listed apart in the source
[24] = biological target: T2, human TPBG (trophoblast glycoprotein), …; experiment: cell-based or functional assay; remark: listed apart in the source
[25] = biological target: T3, minipig TPBG, full length, cell surface …; experiment: cell-based or functional assay

B1: anti-TPBG antibody 051, Fab fragment (Fab, V domains shown)
VH: EVQLLESGGGLLQPGGSLRLSCAASGFTFSIYWMTWVRQAPGKGLEWVSAISGSGGSTYYADSVKGRFTISRDNSKNTLYLQMNSLRAEDTAVYYCAKDYYSNVYWGQGTLVTVSS
VL: DIQMTQSPSSVSASVGDRVTITCRASQGIYSWLAWYQQKPGKAPKLLIYAASSLQSGVPSRFSGSGSGTDFTLTISSLQPEDFATYYCQQSDSPPYTFGQGTKLEIK
notes: also called Fab3
[1]
  Kd: 0.16 nM
  koff: 7.83e-05 s⁻¹
  kon: 489000 M⁻¹ s⁻¹
[2]
  Fold change pH 7.2 vs pH 5.5: 1.1 fold
[3]
  EC50 cytotoxicity, Fab-PE sandwich construct, MCF7: 1.35 nM
  X-fold higher potency compared to TPBG(H8)PE, MCF7: 1.1 fold
[4]
  EC50 cytotoxicity, Fab + anti-kappa-Fab-PE, CHO-K1/human TPBG, replicate 1: 0.28 nM
  EC50 cytotoxicity, Fab + anti-kappa-Fab-PE, CHO-K1/human TPBG, replicate 2: 0.38 nM
[5]
  EC50 cytotoxicity, Fab + anti-kappa-Fab-PE, CHO-K1/minipig TPBG, replicate 1: 6.18 nM
  EC50 cytotoxicity, Fab + anti-kappa-Fab-PE, CHO-K1/minipig TPBG, replicate 2: 5.04 nM
[6]
  Kd: 2.05 nM
  koff: 0.000193 s⁻¹
  kon: 94000 M⁻¹ s⁻¹
[7]
  EC50: 0.0575 µg/mL
[8]
  internalization after 0.5 h, MCF7 cells: 31%
  internalization after 1.0 h, MCF7 cells: 55%
  internalization after 2.0 h, MCF7 cells: 72%
[9]
  EC50: 0.0181 µg/mL
[10]
  EC50: 0.175 µg/mL
[11]
  EC50 cytotoxicity, Fab-PE sandwich construct, H1975, replicate 1: 0.522 nM
  EC50 cytotoxicity, Fab-PE sandwich construct, H1975, replicate 2: 0.397 nM
  EC50 cytotoxicity, Fab-PE sandwich construct, H1975, replicate 3: 0.527 nM
[12]
  Fold change pH 7.2 vs pH 5.5: 1.1 fold

B2: anti-TPBG antibody 051 (mAb) (antibody, V domains shown)
VH: B1 VH
VL: B1 VL
[13]
  binding result: binds
[14]
  binding result: binds

B3: anti-TPBG 051 Fab-PE fusion protein (refolded from E. coli inclusion bodies) (Fab)
heavy: MEVQLLESGGGLLQPGGSLRLSCAASGFTFSIYWMTWVRQAPGKGLEWVSAISGSGGSTYYADSVKGRFTISRDNSKNTLYLQMNSLRAEDTAVYYCAKDYYSNVYWGQGTLVTVSSASTKGPSVFPLAPSSKSTSGGTAALGCLVKDYFPEPVTVSWNSGALTSGVHTFPAVLQSSGLYSLSSVVTVPSSSLGTQTYICNVNHKPSNTKVDKKVEPKSCDKTHKASGGRHRQPRGWEQLGGGGGSPTGAEFLGDGGDVSFSTRGTQNWTVERLLQAHAQLEERGYVFVGYHGTFLEAAQSIVFGGVAARSQDLAAIWAGFYIAGDPALAYGYAQDQEPDAAGRIRNGALLRVYVPASSLPGFYRTSLTLAAPEAAGEVERLIGHPLPLALDAITGPEEEGGRLETILGWPLAERTVVIPSAIPTDPRNVGGDLDPSSIPDKEQAISALPDYASQPGKPPREDLK
light: MDIQMTQSPSSVSASVGDRVTITCRASQGIYSWLAWYQQKPGKAPKLLIYAASSLQSGVPSRFSGSGSGTDFTLTISSLQPEDFATYYCQQSDSPPYTFGQGTKLEIKRTVAAPSVFIFPPSDEQLKSGTASVVCLLNNFYPREAKVQWKVDNALQSGNSQESVTEQDSKDSTYSLSSTLTLSKADYEKHKVYACEVTHQGLSSPVTKSFNRGEC
notes: also called Fab-PE comprising antibody 051
[15]
  EC50: 16.9 nM
[16]
  X-fold higher potency than Fab-PE fusion protein of H8, H1975, 10 min: 1.1 fold
  X-fold higher potency than Fab-PE fusion protein of H8, H1975, 30 min: 1 fold
  X-fold higher potency than Fab-PE fusion protein of H8, H1975, 60 min: 1 fold
  X-fold higher potency than Fab-PE fusion protein of H8, H1975, continuous: 1.1 fold
[17]
  Kd: 0.121 nM
  koff: 3.46e-05 s⁻¹
  kon: 286000 M⁻¹ s⁻¹
[18]
  Kd: 0.292 nM
  koff: 0.000113 s⁻¹
  kon: 386000 M⁻¹ s⁻¹
[19]
  EC50: 12.4 nM
[20]
  EC50: 1.25 nM
[21]
  EC50 cytotoxicity, Fab-PE fusion, H1975, replicate 1: 0.016 nM
  EC50 cytotoxicity, Fab-PE fusion, H1975, replicate 2: 0.014 nM
[22]
  EC50 protein synthesis inhibition (luciferase), BxPC-3, replicate 1: 0.027 nM
  EC50 protein synthesis inhibition (luciferase), BxPC-3, replicate 2: 0.015 nM
[23]
  EC50 proliferation, H1975, 10 min exposure: 0.241 nM
  EC50 proliferation, H1975, 30 min exposure: 0.204 nM
  EC50 proliferation, H1975, 60 min exposure: 0.18 nM
  EC50 proliferation, H1975, continuous exposure: 0.014 nM
[24]
  EC50 cytotoxicity, Fab-PE fusion, stable CHO-K1 huTPBG: 0.03 nM
[25]
  EC50 cytotoxicity, Fab-PE fusion, stable CHO-K1 pgTPBG: 1.37 nM
  X-fold lower potency pgTPBG versus huTPBG: 51.7 fold
